# Assay results from PMC12583548.
# pKd: −log10 of the molar value.
# Tests used:
# [1] = target: HAstV7 capsid spike domain, 10x histidine-tagged (human astrovirus 7 (HAstV7)); assay: BLI; HIS1K biosensors loaded with histidine-tagged spike, FcRn in solution at a single concentration of 2000 nM, kinetics estimated from that one concentration; pH 7.0 buffer, 25 °C; 1:1 model
# [2] = target: HAstV1 capsid spike domain mutant K467A, 10x histidine-tagged (human astrovirus 1 (HAstV1)) (UniProt O12792); assay: as above
# [3] = target: HAstV1 capsid spike domain mutant Y475A, 10x histidine-tagged (human astrovirus 1 (HAstV1)) (UniProt O12792); assay: as above
# [4] = target: HAstV3 capsid spike domain, 10x histidine-tagged (human astrovirus 3 (HAstV3)); assay: as above
# [5] = target: HAstV1 capsid spike domain mutant K514A, 10x histidine-tagged (human astrovirus 1 (HAstV1)) (UniProt O12792); assay: BLI; HIS1K biosensors loaded with 10x histidine-tagged spike, FcRn in solution at 1000, 500, 250, 125 and 62.5 nM; pH 7.0 buffer, 25 °C; 1:1 model
# [6] = target: HAstV6 capsid spike domain, 10x histidine-tagged (human astrovirus 6 (HAstV6)); assay: as above
# [7] = target: HAstV5 capsid spike domain, 10x histidine-tagged (human astrovirus 5 (HAstV5)); assay: as above
# [8] = target: HAstV2 capsid spike domain, 10x histidine-tagged (human astrovirus 2 (HAstV2)); assay: as above
# [9] = target: HAstV4 capsid spike domain, 10x histidine-tagged (human astrovirus 4 (HAstV4)); assay: as above
# [10] = target: HAstV1 capsid spike domain mutant K467H, Avitag-biotinylated (human astrovirus 1 (HAstV1)) (UniProt O12792); assay: BLI; streptavidin biosensors loaded with Avitag-biotinylated spike, FcRn in solution (500-62.5 nM for the wild type); pH 7.0 (0.1 M sodium phosphate, 150 mM NaCl, 0.05% Tween-20), 25 °C; 1:1 model
# [11] = target: HAstV1 capsid spike domain triple mutant 3A (K467A, Y475A, K514A), 10x histidine-tagged (human astrovirus 1 (HAstV1)) (UniProt O12792); assay: SEC; Superdex 200 Increase 10/300 GL, HAstV1 spike mutants alone
# [12] = target: HAstV1 capsid spike domain, Avitag-biotinylated (human astrovirus 1 (HAstV1)) (UniProt O12792); assay: BLI; streptavidin biosensor loaded with biotinylated HAstV1 spike; wild-type or mutant FcRn in solution (500-31.25 nM series; T149N_G151T_D153E at 2000 and 1000 nM); pH 7.0 (0.1 M sodium phosphate, 150 mM NaCl, 0.05% Tween-20), 25 °C; 1:1 model; triplicate
# [13] = target: HAstV1 capsid spike domain mutant K467H, Avitag-biotinylated (human astrovirus 1 (HAstV1)) (UniProt O12792); assay: BLI; streptavidin biosensors loaded with biotinylated HAstV1 K467H spike, dipped into FcRn (1000, 500, 250 nM); pH 5.0 (0.1 M sodium acetate, 150 mM NaCl, 0.05% Tween-20), 25 °C; 1:1 model; average of three replicates
# [14] = target: HAstV1 capsid spike domain, Avitag-biotinylated (human astrovirus 1 (HAstV1)) (UniProt O12792); assay: BLI; biosensors loaded with biotinylated HAstV1 spike (streptavidin, as in Fig. 1a); human or mouse FcRn in solution, 500, 250, 125, 62.5 nM; pH 7.0 (0.1 M sodium phosphate, 150 mM NaCl, 0.05% Tween-20), 25 °C; 1:1 model; average of three replicates
# [15] = target: HAstV1 capsid spike domain mutant K467H, Avitag-biotinylated (human astrovirus 1 (HAstV1)) (UniProt O12792); assay: BLI; streptavidin biosensors loaded with biotinylated HAstV1 K467H spike, dipped into FcRn (2000 nM); pH 7.0 (0.1 M sodium phosphate, 150 mM NaCl, 0.05% Tween-20), 25 °C; 1:1 model; average of three replicates
# [16] = target: HAstV1 capsid spike domain mutant Y475A, 10x histidine-tagged (human astrovirus 1 (HAstV1)) (UniProt O12792); assay: SEC; Superdex 200 Increase 10/300 GL; traces of the HAstV1 spike mutants overlayed with BioRad gel filtration standards
# [17] = target: HAstV1 capsid spike domain mutant Y475A, 10x histidine-tagged (human astrovirus 1 (HAstV1)) (UniProt O12792); assay: SEC; Superdex 200 Increase 10/300 GL, HAstV1 spike mutants alone
# [18] = target: HAstV1 capsid spike domain mutant K514A, 10x histidine-tagged (human astrovirus 1 (HAstV1)) (UniProt O12792); assay: SEC; Superdex 200 Increase 10/300 GL; traces of the HAstV1 spike mutants overlayed with BioRad gel filtration standards
# [19] = target: HAstV1 capsid spike domain mutant K514A, 10x histidine-tagged (human astrovirus 1 (HAstV1)) (UniProt O12792); assay: SEC; Superdex 200 Increase 10/300 GL, HAstV1 spike mutants alone
# [20] = target: HAstV1 capsid spike domain mutant K467H, Avitag-biotinylated (human astrovirus 1 (HAstV1)) (UniProt O12792); assay: SEC; Superdex 200 Increase 10/300 GL; traces of the HAstV1 spike mutants overlayed with BioRad gel filtration standards
# [21] = target: HAstV1 capsid spike domain mutant K467A, 10x histidine-tagged (human astrovirus 1 (HAstV1)) (UniProt O12792); assay: as above
# [22] = target: HAstV1 capsid spike domain mutant K467A, 10x histidine-tagged (human astrovirus 1 (HAstV1)) (UniProt O12792); assay: SEC; Superdex 200 Increase 10/300 GL, HAstV1 spike mutants alone
# [23] = target: HAstV1 capsid spike domain triple mutant 3A (K467A, Y475A, K514A), 10x histidine-tagged (human astrovirus 1 (HAstV1)) (UniProt O12792); assay: SEC; Superdex 200 Increase 10/300 GL; traces of the HAstV1 spike mutants overlayed with BioRad gel filtration standards
substance,measurement,setting,value
"neonatal Fc receptor (FcRn), recombinant human ectodomain heterodimer of FcRn α-chain and β2 microglobulin, with tags (from UniProt P55899;P61769)",pKd,[1],4.99
same,koff,[1],0.013 s⁻¹
same,pKd,[2],4.82
same,koff,[2],0.284 s⁻¹
same,pKd,[3],5.10
same,koff,[3],0.22 s⁻¹
same,pKd,[4],3.74
same,koff,[4],0.099 s⁻¹
same,pKd,[5],5.60
same,koff,[5],0.056 s⁻¹
same,koff,[6],0.015 s⁻¹
same,pKd,[7],6.82
same,koff,[7],0.006 s⁻¹
same,koff,[8],0.048 s⁻¹
same,pKd,[9],6.64
same,pKd,[10],4.65
"HAstV1 capsid spike domain triple mutant 3 A (K467A, Y475A, K514A), 10x histidine-tagged (from UniProt O12792 433-645) (domain or fragment)",stoichiometry N,[11],2
human FcRn mutant T149N_G151T_D153E (ectodomain heterodimer with β2 microglobulin) (from UniProt P55899 24-297; P61769 21-119) (receptor),pKd,[12],4.92
same,koff,[12],0.37 s⁻¹
same,kon,[12],31000 M⁻¹ s⁻¹
human FcRn mutant D153E (ectodomain heterodimer with β2 microglobulin) (from UniProt P55899 24-297; P61769 21-119) (receptor),koff,[12],0.14 s⁻¹
same,kon,[12],85000 M⁻¹ s⁻¹
human FcRn mutant T149N_G151T (ectodomain heterodimer with β2 microglobulin) (from UniProt P55899 24-297; P61769 21-119) (receptor),koff,[12],0.034 s⁻¹
same,kon,[12],74000 M⁻¹ s⁻¹
"human neonatal Fc receptor (FcRn), wild-type ectodomain heterodimer of αFcRn and β2 microglobulin (from UniProt P55899 24-297; P61769 21-119)",koff,[13],0.051 s⁻¹
same,kon,[13],66000 M⁻¹ s⁻¹
same,koff,[14],0.018 s⁻¹
same,kon,[14],94000 M⁻¹ s⁻¹
same,koff,[12],0.0223 s⁻¹
same,kon,[12],93000 M⁻¹ s⁻¹
same,koff,[15],0.24 s⁻¹
same,kon,[15],11000 M⁻¹ s⁻¹
"HAstV1 capsid spike domain mutant Y475A, 10x histidine-tagged (from UniProt O12792 433-645) (domain or fragment)",stoichiometry N,[16],2
same,stoichiometry N,[17],2
"HAstV1 capsid spike domain mutant K514A, 10x histidine-tagged (from UniProt O12792 433-645) (domain or fragment)",stoichiometry N,[18],2
same,stoichiometry N,[19],2
"HAstV1 capsid spike domain mutant K467H, Avitag-biotinylated (from UniProt O12792 433-645) (domain or fragment)",stoichiometry N,[20],2
"HAstV1 capsid spike domain mutant K467A, 10x histidine-tagged (from UniProt O12792 433-645) (domain or fragment)",stoichiometry N,[21],2
same,stoichiometry N,[22],2
"HAstV1 capsid spike domain triple mutant 3A (K467A, Y475A, K514A), 10x histidine-tagged (from UniProt O12792 433-645) (domain or fragment)",stoichiometry N,[23],2
